The target in assay [1] is Fzd7 (endogenous, mouse myogenic cells) (mouse) (UniProt Q61090). Put plainly: cell-based or functional assay.
A further assay concerns the target Fzd7-YFP (CMV-Fzd7-EYFP). The experiment in a line: cell-based or functional assay.

This is an account of results in patent US20170087188A1, “WNT INDUCED MOTILITY AND ENHANCED ENGRAFTMENT OF CELLS” (OTTAWA HOSPITAL RESEARCH INSTITUTE, priority 2014, published 2017).

On to Wnt7a (R&D Systems) (ligand), for which, in assay [1], the abundance of triangular polarized C2C12 cells was found to be 111 % increase, the directional persistence of satellite cells on single myofibers (time lapse imaging) stood at 36 % higher, the mean velocity of satellite cells on single myofibers (time lapse imaging) amounted to 31 % increase and the migration of C2C12 cells in scratch assay came out at 443 % increase. The substance also had a migration of satellite cell derived mouse primary myoblasts in scratch assay in assay [1] of 136 % increase. The cell polarization of Fzd7-YFP expressing C2C12 cells with Fzd7-YFP (CMV-Fzd7-EYFP) turned out to be 167 % increase.
